Molecular target: anti-human ARSA (hARSA) antibodies in cerebrospinal fluid and serum of cynomolgus macaques given AAVhu68.CB7.CI.hARSAco.rBG

B1: human ARSA enzyme expressed from the AAVhu68.CB7.CI.hARSAco.rBG transgene in cynomolgus macaques (protein)
chain: RPPNIVLIFADDLGYGDLGCYGHPSSTTPNLDQLAAGGLRFTDFYVPVSLCTPSRAALLTGRLPVRMGMYPGVLVPSSRGGLPLEEVTVAEVLAARGYLTGMAGKWHLGVGPEGAFLPPHQGFHRFLGIPYSHDQGPCQNLTCFPPATPCDGGCDQGLVPIPLLANLSVEAQPPWLPGLEARYMAFAHDLMADAQRQDRPFFLYYASHHTHYPQFSGQSFAERSGRGPFGDSLMELDAAVGTLMTAIGDLGLLEETLVIFTADNGPETMRMSRGGCSGLLRCGKGTTYEGGVREPALAFWPGHIAPGVTHELASSLDLLPTLAALAGAPLPNVTLDGFDLSPLLLGTGKSPRQSLFFYPSYPDEVRGVFAVRTGKYKAHFFTQGSAHSDTTADPACHASSSLTAHEPPLLYDLSKDPGENYNLLGGVAGATPEVLQALKQLQLLKAQLDAAVTFGPSQVARGEDPALQICCHPGCTPRPACCHCPDPHA
With B1 as the protein, how does the “ARSA activity levels in CSF (hydrolysis of 4-nitrocatechol sulfate)” value read?
Its value is “CSF ARSA activity levels returned to approximately baseline levels over the subsequent 28 days”.

From patent US20250313859
